Legend:
human VEGF [1] = target: T1, human VEGF (human, UniProt P15692 207-395, biotinylated (site not stated)); test: Biacore SPR, hVEGF (second row labelled Y32H)
T1 construct: Biotinylated human VEGF generated internally; also called hVEGF; hVEGF-biotin
T1 sequence: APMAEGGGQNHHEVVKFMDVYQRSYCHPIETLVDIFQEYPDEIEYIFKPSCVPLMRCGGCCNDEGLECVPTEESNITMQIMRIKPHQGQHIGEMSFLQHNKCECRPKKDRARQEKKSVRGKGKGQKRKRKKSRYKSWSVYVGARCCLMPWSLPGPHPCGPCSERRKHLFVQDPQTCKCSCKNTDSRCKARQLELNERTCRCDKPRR

human VEGF [2] = target: T1, human VEGF; test: Biacore SPR, hVEGF
Experimental: (§1) At first, individual CDR residues were substituted and the affinity for hVEGF was measured by Biacore as described below. […] HC8T, and HC9T and the affinity of the resulting peptide-tagged Fab for both HA and hVEGF was measured by Biacore as described below (Table 17).
(§2) Affinity of optimized HA-binding peptide tags for HA and human VEGF were measured by Biacore. […] In order to determine target kinetics, two different formats were utilized. […] The second format is an anti-fab capture method in which the fab protein samples are captured and the target proteins flowed over at various concentrations.
(§3) The sample compartment which includes the analytes, ligands, and regeneration buffer, is kept at 15° C. All other running conditions were carried out at either 25° C. or 37° C. in 1×HBSE+P buffer. […] Data was collected at 10 Hz and analyzed using the Biacore T200 Evaluation Software (GE Healthcare®). This program uses a global fitting analysis method for the determination of rate and affinity constants for each interaction.

human VEGF [3] = target: T1, human VEGF; test: Biacore SPR, hVEGF (second row labelled Y32H); the sign of the exponent is misprinted (kd/KD of the same row = 4.9e6); second row labelled Y32H (r159), not r156
Experimental: as §1, §2, §3

human VEGF [4] = target: T1, human VEGF; test: Biacore SPR, hVEGF; the minus sign of the exponent is missing in print (kd/ka of the same row = 3.05e-12)
Experimental: as §1, §2, §3

human Factor P [5] = target: T2, human Factor P (human, UniProt P27918 28-469, biotinylated (site not stated)); test: Biacore SPR; affinity of NVS71T against untagged NVS71
T2 construct: also called Factor P-biotin; Hu factor P-biotin

human Factor P [6] = target: T2, human Factor P; test: Biacore SPR, Factor P-biotin, 25 C
human Factor P [7] = target: T2, human Factor P; test: Biacore SPR, Hu factor P-biotin, 37 C
human TNFα [8] = target: T3, human TNFα (human, UniProt P01375 77-233, biotinylated (site not stated)); test: Biacore SPR, TNFα-biotin, 37 C
T3 construct: also called TNFα-biotin; Hu TNFα-biotin

human TNFα [9] = target: T3, human TNFα; test: Biacore SPR; affinity of NVS73T against untagged NVS73
human TNFα [10] = target: T3, human TNFα; test: Biacore SPR, Hu TNFα-biotin, 37 C

T2 sequence (P27918 28-469 limits assumed): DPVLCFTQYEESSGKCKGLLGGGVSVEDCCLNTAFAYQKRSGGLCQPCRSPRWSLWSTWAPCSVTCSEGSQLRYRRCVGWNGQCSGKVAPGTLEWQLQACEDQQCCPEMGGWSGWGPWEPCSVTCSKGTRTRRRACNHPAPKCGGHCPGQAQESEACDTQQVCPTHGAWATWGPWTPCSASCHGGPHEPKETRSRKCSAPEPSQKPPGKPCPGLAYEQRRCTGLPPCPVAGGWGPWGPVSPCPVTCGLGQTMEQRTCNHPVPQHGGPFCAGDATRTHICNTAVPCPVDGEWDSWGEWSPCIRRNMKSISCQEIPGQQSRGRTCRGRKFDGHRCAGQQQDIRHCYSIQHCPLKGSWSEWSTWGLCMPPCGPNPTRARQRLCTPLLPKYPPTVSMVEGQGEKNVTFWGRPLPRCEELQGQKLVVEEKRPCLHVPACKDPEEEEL
T3 sequence (P01375 77-233 limits assumed): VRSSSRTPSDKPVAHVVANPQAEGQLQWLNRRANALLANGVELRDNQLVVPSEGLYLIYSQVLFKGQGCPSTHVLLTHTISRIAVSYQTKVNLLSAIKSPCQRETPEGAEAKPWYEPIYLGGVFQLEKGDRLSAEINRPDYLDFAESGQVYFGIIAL

B1: NVS4 heavy chain variant Y32H (Fab, V domains shown)
VH: EVQLVESGGGLVQPGGSLRLSCTASGFSLTDHYYMTWVRQAPGKGLEWVGFIDPDDDPYYATWAKGRFTISRDNSKNTLYLQMNSLRAEDTAVYYCAGGDHNSGWGLDIWGQGTLVTVSS
VL: EIVMTQSPSTLSASVGDRVIITCQASEIIHSWLAWYQQKPGKAPKLLIYLASTLASGVPSRFSGSGSGAEFTLTISSLQPDDFATYYCQNVYLASTNGANFGQGTKLTVLK
notes: CDR variant of NVS4; The label Y32H is printed in two rows (r156, r159) with different values
- Kd (human VEGF [1]): 0.169 nM
- koff (human VEGF [1]): 0.000829 s⁻¹
- Kd (human VEGF [2]): 0.0204 nM
- koff (human VEGF [2]): 0.000112 s⁻¹
- kon (human VEGF [2]): 5.49e+06 M⁻¹ s⁻¹
- kon (human VEGF [3]): 4.91e+06 M⁻¹ s⁻¹

B2: NVS4 light chain variant E27Q (Fab, V domains shown)
VH: EVQLVESGGGLVQPGGSLRLSCTASGFSLTDYYYMTWVRQAPGKGLEWVGFIDPDDDPYYATWAKGRFTISRDNSKNTLYLQMNSLRAEDTAVYYCAGGDHNSGWGLDIWGQGTLVTVSS
VL: EIVMTQSPSTLSASVGDRVIITCQASQIIHSWLAWYQQKPGKAPKLLIYLASTLASGVPSRFSGSGSGAEFTLTISSLQPDDFATYYCQNVYLASTNGANFGQGTKLTVLK
notes: CDR variant of NVS4
- koff (human VEGF [2]): 1.64e-05 s⁻¹
- kon (human VEGF [2]): 5.37e+06 M⁻¹ s⁻¹
- Kd (human VEGF [4]): 0.00306 nM

B3: NVS71T (Fab, V domains shown)
VH: EVQLVQSGAEVKKPGSSVKVSCKASGGTFSSYAISWVRQAPGQGLEWMGRIIPIFGTANYAQKFQGRVTITADESTSTAYMELSSLRSEDTAVYYCARHGGYSFDSWGQGTLVTVSS
VL: SYELTQPPSVSVAPGQTARISCSGDNLGSKYVDWYQQKPGQAPVLVIYSDNNRPSGIPERFSGSNSGNTATLTISGTQAEDEADYYCQTYTSGNNYLVFGGGTKLTVLG
notes: Anti-Factor P Fab with HA tag at heavy chain C-terminus
- Fold improvement (human Factor P [5]): 5.7 fold
- Kd (human Factor P [6]): 0.0955 nM
- koff (human Factor P [6]): 0.000412 s⁻¹
- kon (human Factor P [6]): 4.31e+06 M⁻¹ s⁻¹
- Kd (human Factor P [7]): 0.0955 nM
- koff (human Factor P [7]): 0.000412 s⁻¹
- kon (human Factor P [7]): 4.31e+06 M⁻¹ s⁻¹

B4: NVS73T (Fab, V domains shown)
VH: EVQLVESGGGSVQPGGSLRLSCTASGFTISRSYWICWVRQAPGKGLEWVGCIYGDNDITPLYANWAKGRFTISRDTSKNTVYLQMNSLRAEDTATYYCARLGYADYAYDLWGQGTTVTVSS
VL: EIVMTQSPSTLSASVGDRVIITCQSSQSVYGNIWMAWYQQKPGRAPKLLIYQASKLASGVPSRFSGSGSGAEFTLTISSLQPDDFATYYCQGNFNTGDRYAFGQGTKLTVLK
notes: Anti-TNFα Fab with HA tag at heavy chain C-terminus
- Kd (human TNFα [8]): 0.000742 nM
- koff (human TNFα [8]): 2.47e-05 s⁻¹
- kon (human TNFα [8]): 3.33e+07 M⁻¹ s⁻¹
- Fold improvement (human TNFα [9]): 35 fold
- Kd (human TNFα [10]): 0.000742 nM
- koff (human TNFα [10]): 2.47e-05 s⁻¹
- kon (human TNFα [10]): 3.33e+07 M⁻¹ s⁻¹
